Earlier results, collected in patent publication US20020192216A1, “Therapeutic use” (priority 1999, published 2002).

Tested on: all three mammalian Hedgehog proteins
Details: compared with Ptc

B1: HIP: membrane glycoprotein that binds Hedgehog proteins and attenuates Hedgehog signalling; GenBank AF116865 (protein, UniProt Q7TN16 18-700, looked up)
Hedgehog-interacting protein: FFEGDAKFGERNEGSGARRRRCLNGNPPKRLKRRDRRVMSQLELLSGGEILCGGFYPRVSCCLQSDSPGLGRLENKIFSATNNSECSRLLEEIQCAPCSPHSQSLFYTPERDVLDGDLALPLLCKDYCKEFFYTCRGHIPGLLQTTADEFCFYYARKDAGLCFPDFPRKQVRGPASNYLGQMEDYEKVGGISRKHKHNCLCVQEVMSGLRQPVSAVHSGDGSHRLFILEKEGYVKILTPEGELFKEPYLDIHKLVQSGIKGGDERGLLSLAFHPNYKKNGKLYVSYTTNQERWAIGPHDHILRVVEYTVSRKNPHQVDVRTARVFLEVAELHRKHLGGQLLFGPDGFLYIILGDGMITLDDMEEMDGLSDFTGSVLRLDVDTDMCNVPYSIPRSNPHFNSTNQPPEVFAHGLHDPGRCAVDRHPTDININLTILCSDSNGKNRSSARILQIIKGRDYESEPSLLEFKPFSNGPLVGGFVYRGCQSERLYGSYVFGDRNGNFLTLQQSPVTKQWQEKPLCLGASSSCRGYFSGHILGFGEDELGEVYILSSSKSMTQTHNGKLYKIVDPKRPLMPEECRVTVQPAQPLTSDCSRLCRNGYYTPTGKCCCSPGWEGDFCRIAKCEPACRHGGVCVRPNKCLCKKGYLGPQCEQVDRNVRRVTRAGILDQIIDMTSYLLDLTSYIV
  affinity for Hedgehog proteins: comparable to that of Ptc
